Reference: article PMC7228087, “Atco, a yeast mitochondrial complex of Atp9 and Cox6, is an assembly intermediate of the ATP synthase” (PLoS ONE, 2020)

Target: T1, Cox6 with a tandem hemagglutinin plus protein C tag (S. cerevisiae, UniProt P00427 41-148)
T1 construct: Cox6, nuclear-encoded imported structural subunit of cytochrome oxidase, S. cerevisiae; also called Cox6-HAC; COX6-HAC; source: expressed in S. cerevisiae (cox6::URA3 trp1::pG71/ST9), in digitonin extract of mitochondria
T1 sequence (looked up): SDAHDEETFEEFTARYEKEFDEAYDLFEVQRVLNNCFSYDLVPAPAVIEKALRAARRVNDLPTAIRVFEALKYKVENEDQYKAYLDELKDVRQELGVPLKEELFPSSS
Assay: co-IP; as a1 but from an oxa1 null mutant expressing Cox6-HAC; radiolabel quantified as ratio to the OXA1 strain
Settings: partners not purified

B1: Atp9 (natural protein, UniProt P61829 1-76, looked up)
chain: MQLVLAAKYIGAGISTIGLLGAGIGIAIVFAALINGVSRNPSIKDTVFPMAILGFALSEATGLFCLMVSFLLLFGV
notes: Atp9, mitochondrially encoded subunit of the ATP synthase ring, S. cerevisiae; wild type with native cysteine at residue 65; The introduction says that the ring of the ATP synthase has 10 copies of Atp9; In Atco the protein is oligomeric but not a ring; also called A9; Atp9 ring; source: submitochondrial particles for Western blots
ratio (Δoxa1/OXA1) of radiolabel in the PC eluate, SDS-PAGE: 0.124 ratio
